Laboratory results taken from patent US20240343781A1 (published 2024).

B1: engineered monoclonal antibody 12-16 (antibody, V domains shown)
VH: QVQLVESGGGVVQPGRSLRLSCAASGFTFSNYGMHWVRQAPGKGLEWVAIISFDGSNRYYADSVKGRFTISRDNSKNTLYLQMDSLRAEDTAVYYCAKDLSFYYDISTGYYPQSYNSGTDVWGQGTTVTVSS
VL: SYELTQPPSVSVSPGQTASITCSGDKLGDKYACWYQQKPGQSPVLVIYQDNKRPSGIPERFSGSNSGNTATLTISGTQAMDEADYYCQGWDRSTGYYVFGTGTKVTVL
B2: engineered monoclonal antibody 12-19 (antibody, V domains shown)
VH: QVQLVESGGGVVQPGRSLRLSCEASGFTFNTYDMHWARQAPGKGLEWVAVIWYDGSNKFYADSVKGRFTISRDNSKNTLYLQMNSLRAEDTAVYYCARDRTPVYDILTGYYWPPPRVDGMDVWGQGTTVTVSS
VL: DNVMTQTPFSLSVTPGQPASISCKSSQSLLHSDGKTYLYWYLQKPGQSPQLLIYEVSNRFSGVPERFSGSGSGTDFTLKISRVEAEDVGVYYCMQSIQLPFTFGQGTKLEIK

Target: SARS-COV-2 D614G spike trimer (SARS-CoV-2, UniProt P0DTC2 14-1208)
Assay: SPR

Binder | Kd [nM]
B1 | 1.6
B2 | 9.35
